This is an account of results in patent US20160074488A1 (UNIVERSITY OF CHICAGO, published 2016).

B1: βTail peptide (peptide)
peptide: MALKVELEKLKSELVVLHSELHKLKSEL
B2: HK-Q11 β-sheet fibrillizing peptide (nanofibers) (peptide)
peptide: QQKFQFQFHQQ
notes: Synthetic peptide assembled into nanofibers
B3: Q11 β-sheet fibrillizing peptide (assembled as Q11 nanofibers, gels or microgels) (peptide)
peptide: QQKFQFQFEQQ
notes: Synthetic peptide; stands in the assays as a supramolecular nanofiber of many copies; also called Q11 gels; Q11 microgels
B4: Tryptophan-terminated βTail (peptide)
peptide: WGSGSMALKVELEKLKSELVVLHSELHKLKSEL
notes: Synthetic peptide; also called W-βTail; W-βT

Data set [1] has as its target B3. Nature of the data set: circular dichroism.
Data set [2] deals with the molecule itself. Briefly: circular dichroism (FIGS. 1B-C). A general note: CD spectra are sensitive to the conformation of chiral molecules.
Data set [3] concerns the molecule itself. Briefly: TEM and thioflavin T fluorescence.
The target of data set [4] is gold-labeled streptavidin (streptavidin-5 nm gold particles, Invitrogen cat. # A32360) (UniProt P22629 37-163, limits assumed, bound to 5 nm gold particles). Briefly: gold TEM.
gold-labeled streptavidin (streptavidin-5 nm gold particles, Invitrogen cat. # A32360), sequence (P22629 37-163 limits assumed, one chain of several): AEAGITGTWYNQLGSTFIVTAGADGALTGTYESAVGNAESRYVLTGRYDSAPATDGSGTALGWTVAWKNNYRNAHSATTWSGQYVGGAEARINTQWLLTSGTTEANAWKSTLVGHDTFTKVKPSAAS
The target of data set [5] is T1, βTail-cutinase (fusion of βTail and the fungal enzyme cutinase).
T1 construct: also called βT-cut
Nature of the data set: loss of protein from the supernatant (µBCA).

Data set [6] concerns the target B3. Briefly: loss of tryptophan fluorescence from the supernatant.

In the case of B1, the binding result in data set [1] and in data set [2] was “binds” in each case.
With B2, in data set [3], the binding result is recorded as “binds”.
B3: the binding result in data set [4] is “no binding”; in data set [2] it was “binds”; in data set [5], “binds”.
As for B4, in data set [6], the binding result was “binds”.
